From the supplement of paper PMC11246515
± gives the standard deviation of the averaged measurements.

Assay: total protein half-life in vivo (active degradation + dilution); higher = more stable protein
[1] = E. coli NCM3722 delta-clpP delta-lon delta-hslV, growth: N-lim chemostat, doubling time 6 h
[2] = E. coli NCM3722 delta-clpP, growth: N-lim chemostat, doubling time 6 h
[3] = E. coli NCM3722 delta-smpB, growth: N-lim chemostat, doubling time 6 h
[4] = wild type E. coli NCM3722, growth: C-lim chemostat, doubling time 3 h
[5] = wild type E. coli NCM3722, growth: C-lim chemostat, doubling time 6 h
[6] = wild type E. coli NCM3722, growth: N-lim chemostat, doubling time 6 h
[7] = wild type E. coli NCM3722, growth: N-lim chemostat, doubling time 12 h
[8] = wild type E. coli NCM3722, growth: P-lim chemostat, doubling time 6 h
[9] = wild type E. coli NCM3722, growth: P-lim chemostat, doubling time 12 h
[10] = E. coli NCM3722 delta-hslV, growth: N-lim chemostat, doubling time 6 h
[11] = E. coli NCM3722 delta-lon, growth: N-lim chemostat, doubling time 6 h
[12] = wild type E. coli NCM3722, growth: C-lim chemostat, doubling time 12 h

Row | Sequence | total protein half-life in vivo [1] | total protein half-life in vivo [2] | total protein half-life in vivo [3] | total protein half-life in vivo [4] | total protein half-life in vivo [5] | total protein half-life in vivo [6] | total protein half-life in vivo [7] | total protein half-life in vivo [8] | total protein half-life in vivo [9] | total protein half-life in vivo [10] | total protein half-life in vivo [11] | total protein half-life in vivo [12]
1 | MPAVIDKALDFIGAMDVSAPTPSSMNESTAKGIFKYLKELGVPASAADITARADQEGWNPGFTEKMVGWAKKMETGERSVIKNPEYFSTYMQEELKALV | 1.25 ± 0.38 h | 0.88 h | 0.51 h | 0.644 ± 0.18 h | 0.706 h | 0.681 ± 0.18 h | 0.727 ± 0.045 h | 0.402 h | 1.25 h |  |  | 
2 | MPDAVQAPYPAYRPEPNMQTITIAPPKRSWFSLLSWAVVLAVLVVSWQGAEMAPLTLIKDGGNMATFAADFFPPDFSQWQDYLTEMAVTLQIAVWGTALAVVLSIPFGLMSAENLVPWWVYQPVRRLMDACRAINEMVFAMLFVVAVGLGPFAGVLACWRCLSTPPACSPSCFPKRWKRLSPARWKAFAPPVPTSSKRSSTACCHR [P0DP69] |  |  |  |  |  |  |  | 0.274 ± 0.32 h | 0.661 ± 0.64 h |  |  | 
3 | MPEATPFQVMIVDDHPLMRRGVRQLLELDPGSEVVAEAGDGASAIDLANRLDIDVILLDLNMKGMSGLDTLNALRRDGVTAQIIILTVSDASSDVFALIDAGADGYLLKDSDPEVLLEAIRAGAKGSKVFSERVNQYLREREMFGAEEDPFSVLTERELDVLHELAQGLSNKQIASVLNISEQTVKVHIRNLLRKLNVRSRVAATILFLQQRGAQ | 5.05 ± 0.31 h | 2.4265 ± 0.00011 h | 2.02 ± 0.099 h | 2.08 ± 0.15 h | 3.41 ± 0.22 h | 2.3 ± 0.18 h | 2.86 ± 0.24 h | 2.62 ± 0.31 h | 4.65 ± 0.4 h | 2.17 ± 0.36 h | 4.47 ± 1.4 h | 5.71 ± 1 h
4 | MPEGPEIRRAADNLEAAIKGKPLTDVWFAFPQLKPYQSQLIGQHVTHVETRGKALLTHFSNDLTLYSHNQLYGVWRVVDTGEEPQTTRVLRVKLQTADKTILLYSASDIEMLTPEQLTTHPFLQRVGPDVLDPNLTPEVVKERLLSPRFRNRQFAGLLLDQAFLAGLGNYLRVEILWQVGLTGNHKAKDLNAAQLDALAHALLEIPRFSYATRGQVDENKHHGALFRFKVFHRDGEPCERCGSIIEKTTLSSRPFYWCPGCQH | 5.54 ± 0.6 h | 5.55 ± 0.23 h | 4.38 ± 0.63 h | 2.36 ± 0.55 h |  | 5.45 h | 11 ± 0.57 h |  | 7.33 h | 6.197 ± 0.018 h | 6.19 ± 0.85 h | 9.48 h
5 | MPFKPLVTAGIESLLNTFLYRSPALKTARSRLLGKVLRVEVKGFSTSLILVFSERQVDVLGEWAGDADCTVIAYASVLPKLRDRQQLTALIRSGELEVQGDIQVVQNFVALADLAEFDPAELLAPYTGDIAAEGISKAMRGGAKFLHHGIKRQQRYVAEAITEEWRMAPGPLEVAWFAEETAAVERAVDALTKRLEKLEAK [P0ADP7] | 5.27 ± 0.14 h |  | 4.88 ± 0.14 h | 2.77 ± 0.21 h | 4.84 ± 0.24 h | 4.76 ± 0.091 h | 8.56 ± 0.1 h | 4.93 ± 0.25 h | 8.919 ± 0.012 h |  | 4.977 ± 0.043 h | 7.62 ± 0.27 h
6 | MPFTLGQRWISDTESELGLGTVVAVDARTVTLLFPSTGENRLYARSDSPVTRVMFNPGDTITSHDGWQMQVEEVKEENGLLTYIGTRLDTEESGVALREVFLDSKLVFSKPQDRLFAGQIDRMDRFALRYRARKYSSEQFRMPYSGLRGQRTSLIPHQLNIAHDVGRRHAPRVLLADEVGLGKTIEAGMILHQQLLSGAAERVLIIVPETLQHQWLVEMLRRFNLRFALFDDERYAEAQHDAYNPFDTEQLVICSLDFARRSKQRLEHLCEAEWDLLVVDEAHHLVWSEDAPSREYQAIEQLAEHVPGVLLLTATPEQLGMESHFARLRLLDPNRFHDFAQFVEEQKNYRPVADAVAMLLAGNKLSNDELNMLGEMIGEQDIEPLLQAANSDSEDAQSARQELVSMLMDRHGTSRVLFRNTRNGVKGFPKRELHTIKLPLPTQYQTAIKVSGIMGARKSAEDRARDMLYPERIYQEFEGDNATWWNFDPRVEWLMGYLTSHRSQKVLVICAKAATALQLEQVLREREGIRAAVFHEGMSIIERDRAAAWFAEEDTGAQVLLCSEIGSEGRNFQFASHMVMFDLPFNPDLLEQRIGRLDRIGQAHDIQIHVPYLEKTAQSVLVRWYHEGLDAFEHTCPTGRTIYDSVYNDLINYLASPDQTEGFDDLIKNCREQHEALKAQLEQGRDRLLEIHSNGGEKAQALAESIEEQDDDTNLIAFAMNLFDIIGINQDDRGDNMIVLTPSDHMLVPDFPGLSEDGITITFDREVALAREDAQFITWEHPLIRNGLDLILSGDTGSSTISLLKNKALPVGTLLVELIYVVEAQAPKQLQLNRFLPPTPVRMLLDKNGNNLAAQVEFETFNRQLNAVNRHTGSKLVNAVQQDVHAILQLGEAQIEKSARALIDAARNEADEKLSAELSRLEALRAVNPNIRDDELTAIESNRQQVMESLDQAGWRLDALRLIVVTHQ | 5.68 ± 0.18 h | 5.48 ± 0.61 h | 5.21 ± 0.39 h | 3.11 ± 0.088 h | 6.26 ± 0.79 h | 5.09 ± 0.06 h | 9.51 ± 1.1 h | 6.156 ± 0.013 h | 12.1 ± 1.1 h | 5.139 ± 0.024 h | 5.36 ± 0.42 h | 12.5 ± 1.6 h
7 | MPGKIAVEVAYALPEKQYLQRVTLQEGATVEEAIRASGLLELRTDIDLTKNKVGIYSRPAKLSDSVHDGDRVEIYRPLIADPKELRRQRAEKSANK | 5.54 ± 0.24 h | 5.02 ± 0.35 h | 2.89 ± 0.05 h | 2.87 h | 5.02 ± 0.71 h | 3.34 ± 0.09 h | 5.54 h | 5.31 h | 8.44 ± 1 h | 3.33 h | 4.06 h | 6.3 ± 3.5 h
